Experimental data published in patent publication US20140227270A1.

Target: Human CXCR7 (human) (UniProt P25106)
Assay: competition FACS, 4 nM biotinylated SDF-1 on HEK-hCXCR7 cells

Sequence of Human CXCR7 (human) (P25106 whole entry): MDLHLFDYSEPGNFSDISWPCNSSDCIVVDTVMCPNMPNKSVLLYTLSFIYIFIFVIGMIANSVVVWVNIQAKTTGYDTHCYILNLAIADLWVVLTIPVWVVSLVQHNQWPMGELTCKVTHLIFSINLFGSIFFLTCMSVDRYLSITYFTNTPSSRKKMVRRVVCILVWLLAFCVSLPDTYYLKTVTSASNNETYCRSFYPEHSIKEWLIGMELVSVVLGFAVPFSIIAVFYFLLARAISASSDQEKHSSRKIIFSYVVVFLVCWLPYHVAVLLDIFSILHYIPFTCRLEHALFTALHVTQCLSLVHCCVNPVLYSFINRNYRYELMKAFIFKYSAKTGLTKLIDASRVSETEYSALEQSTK

Mab 8F11 (Biolegend) (antibody)
% competition relative to unlabelled SDF-1: > 95%
